US20230174641A1 (H LUNDBECK A S, published 2023)
Ends that are not written are not given here.

T1: human ACTH 1-39 (human)
T1 peptide: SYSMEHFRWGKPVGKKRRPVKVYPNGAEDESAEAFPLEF

T2: human ACTH 1-13 (human, ends and bridges not checked)
T2 construct: also called human alpha-MSH (ACTH 1-13); alpha-MSH
T2 peptide: SYSMEHFRWGKPV

T3: N-term biotinylated human ACTH 1-39 (human, N-terminal biotin)
T3 construct: also called huACTH 1-39
T3 peptide: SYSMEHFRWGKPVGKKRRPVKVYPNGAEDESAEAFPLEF

T4: human ACTH 18-39 (human)
T4 construct: also called CLIP; CLIP (ACTH 18-39)
T4 peptide: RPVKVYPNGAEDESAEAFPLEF

T5: ACTH 1-24 (human)
T5 peptide: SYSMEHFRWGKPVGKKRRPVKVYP


Experiments:
human ACTH 1-39 [1] = target: T1, human ACTH 1-39; experiment: cell-based or functional assay
human ACTH 1-39 [2] = target: T1, human ACTH 1-39; experiment: cell-based or functional assay
human ACTH 1-39 [3] = target: T1, human ACTH 1-39; experiment: cell-based or functional assay
human ACTH 1-13 [4] = target: T2, human ACTH 1-13; experiment: SPR ProteOn, antibody immobilised; SPR, antibody on the chip, alpha-MSH alone (Table 6)
Method: (§1) Antibody was immobilized to the surface of general amine coupling (GLC or GLM) Chips (Bio-Rad). […] At the chosen concentrations of antigen (ranging from 454 ng/ml to 5.6 ng/ml) association times of 200 seconds and dissociation times of 30-200 minutes were used with the ProteOnTM Manager Software (v3.1.0.6, Bio-Rad) to group and fit data using a 1:1 Langmuir binding model. Surfaces were regenerated between analyte queries using 10 mM glycine at pH 2.0. Data repeated across a single density was averaged and a single KD and standard propagation of error calculated for each antibody.

human ACTH 1-39 [5] = target: T1, human ACTH 1-39; experiment: cell-based or functional assay
[6] = target: T3, N-term biotinylated human ACTH 1-39; experiment: competition HTRF, biotinylated human ACTH 1-39 in the presence of ACTH 1-13 and ACTH 18-39 at 10X (550 nM each, [p-2038])
Method: (§2) Twenty microliters of Eu3+cryptate labeled anti-hu Fc donor and 20 μl of d2-labeled streptavidin acceptor were added to each well and incubated for 1 hour at room temperature. Fluorescence was measured at […] with a delay of 300 μsec.

[7] = target: T3, N-term biotinylated human ACTH 1-39; experiment: ELISA, biotin-ACTH 1-39 on neutravidin plate
Method: All incubations were done at room temperature. […] The plates were then blocked using a blocking solution (PBS, 0.5% fish skin gelatin, 0.05% Tween-20) for approximately one hour. The blocking solution was then removed and the plates were then incubated with a dilution series of the antibody being tested for approximately one hour. At the end of this incubation, the plate was washed three times with wash buffer and further incubated with a secondary antibody containing solution (Peroxidase conjugated AffmiPure™ F(ab′)₂ fragment goat anti-human IgG, Fc fragment specific (Jackson Immunoresearch) for approximately 45 minutes and washed three times. Next a substrate solution (TMB peroxidase substrate, BioFx®, SurModics, Eden Prairie, Minn.) was added and incubated for 3 to 5 minutes in the dark. The reaction was stopped by addition of 0.5 M HCl and the plate was read at 450 nm in a plate-reader.

[8] = target: T3, N-term biotinylated human ACTH 1-39; experiment: competition HTRF, biotinylated human ACTH 1-39 in the presence of ACTH 1-13 and ACTH 18-39 at 1X (55 nM each, [p-2038])
Method: as §2

human ACTH 18-39 = target: T4, human ACTH 18-39; experiment: SPR ProteOn, antibody immobilised
Method: as §1

human ACTH 1-39 [9] = target: T1, human ACTH 1-39; experiment: SPR ProteOn, antibody immobilised
Method: as §1

ACTH 1-24 = target: T5, ACTH 1-24; experiment: cell-based or functional assay
human ACTH 1-13 [10] = target: T2, human ACTH 1-13; experiment: SPR ProteOn, antibody immobilised
Method: as §1

| Y1 Cells IC50 (human ACTH 1-39 [1]) [nM] | MC3R IC50 (human ACTH 1-39 [2]) [nM] | MC4R IC50 (human ACTH 1-39 [2]) [nM] | MC5R IC50 (human ACTH 1-39 [2]) [nM] | MC2R IC50 (human ACTH 1-39 [3]) [nM] | Kd (human ACTH 1-13 [4]) [nM] | koff (human ACTH 1-13 [4]) [s⁻¹] | kon (human ACTH 1-13 [4]) [M⁻¹ s⁻¹] | MC1R IC50 (human ACTH 1-39 [5]) [nM] | EC50 (read off the curve) [6] [nM] | EC50 [7] [nM] | EC50 (read off the curve) [8] [nM] | koff (human ACTH 18-39) [s⁻¹] | Kd (human ACTH 1-39 [9]) [nM] | koff (human ACTH 1-39 [9]) [s⁻¹] | kon (human ACTH 1-39 [9]) [M⁻¹ s⁻¹] | IC50 (nM), cAMP in MC2R cells (ACTH 1-24) [nM] | koff (human ACTH 1-13 [10]) [s⁻¹] | Kd (human ACTH 18-39) [nM] | kon (human ACTH 18-39) [M⁻¹ s⁻¹] | Binder |
| --- | --- | --- | --- | --- | --- | --- | --- | --- | --- | --- | --- | --- | --- | --- | --- | --- | --- | --- | --- | --- |
| 3.49 | 58.1 | 43.4 | 1000 | 0.11 | 55 | 0.014 | 260000 | 1.96 | ~3 | 1.5 | ~2 | > 0.1 | 0.064 | 6.4e-05 | 1e+06 | – | – | – | – | Ab5 (antibody, human IgG1, kappa, N297A, V domains shown, rabbit/human chimeric antibody, made in HEK-293) VH: QSVEESGGRLVTPGTPLTLTCTVSGFSLSSYAMSWVRQAPGEGLEWIGIISDSGSTYYASWAKGRFTISKTSTTVDLKITSPTTEDTATYFCAREPEYGYDDYGDWVSDLWGQGTLVTVSS VL: DIVMTQTPASVSEPVGGTVTIKCQASQSISSYLSWYQQKPGQPPKLLIYRASTLASGVPSRFKGSGSGTQFTLTISDLECADAATYYCQSYYYSSSITYRNAFGGGTEVVVKR |
| 1.44 | 62.8 | 55.2 | 1000 | 0.03 | 16 | 0.0052 | 330000 | 1.04 | – | 2 | – | > 0.1 | 0.019 | 1.9e-05 | 1e+06 | 0.1 | – | – | – | Ab6 (antibody, human IgG1, kappa, N297A, V domains shown, rabbit/human chimeric antibody, made in HEK-293) VH: QSVEESGGRLVTPGTPLTLTCTVSGFSLTDYAMSWVRQAPGEGLEWIGIISDSGSTYYASWAKGRFTFSKTSTTVDLRITSPTTEDTATYFCAREPEYGYDEYGDWVSDLWGPGTLVTVSS VL: DIVMTQTPASVEAAVGGAVTIKCQATQSIGNNLAWYQQKPGQPPKLLIYRASTLASGVPSRFKGSGSGTEFTLTISDLECADAATYYCQSYYYSSSITYHNAFGGGTEVVVKR |
| – | 79 | 54.5 | 1100 | 0.25 | – | – | – | 3.62 | – | 0.42 | – | 0.026 | – | – | – | 1.3 | > 0.1 | 31 | 840000 | Ab2 (antibody, human IgG1, kappa, N297A, V domains shown, rabbit/human chimeric antibody, made in HEK-293) VH: QSVEESGGRLVTPGTPLTLTCTVSGFSLSKYDMIWVRQAPGKGLESIGIIYDDGDTYYASWAKGRFTISQTSTTVDLKIISPTTEDTATYFCVKGVSNIWGQGTLVTVSS VL: DVVMTQTPASVEAAVGGTVTIKCQASQSISNYLAWYQQKTGQPPKLLIYSASTLASGVPSRFKGSGSGTEFTLTISDLECADAATYYCQSYEGSSSSSYGVGFGGGTEVVVKR |
| 7.72 | 58.7 | 54.2 | 1100 | 0.29 | – | – | – | 4.12 | – | 0.24 | – | 0.0085 | – | – | – | 0.8 | > 0.1 | 25 | 340000 | Ab3 (antibody, human IgG1, kappa, N297A, V domains shown, rabbit/human chimeric antibody, made in HEK-293) VH: QSLEESGGRLVTPGTPLTLTCTVSGSSLSNFDMIWVRQAPGKGLESIGIIYDFGSTYYASWAKGRFTISRTSSTTVDLKIISPTIEDTATYFCVKGVSNIWGQGTLVTVSS VL: DVVMTQTPASVEAAVGGTVTIKCQASEDISSNLAWYQQKLGQPPKLLIYSASTLASGVPSRFKGSGSGTEFTLAISDLECADAATYYCQSYDGSSSSSYGIGFGGGTEVVVKR |
